These results are taken from patent publication US20210317223A1 (DRAGONFLY THERAPEUTICS, published 2021).

Experiment [1] has as its target T1, CD16-F158V (UniProt P08637 17-254).
T1 construct: whole, on cells; It is probably the mature protein, so it may not match the position on the precursor entry; The KHYG-1 cells also express NKG2D
The experiment is described as follows: flow cytometry on KHYG-1 cells transduced with CD16-F158V (the cells also express NKG2D), anti-human IgG secondary antibody, MFI. As to the method: (§1) The KHYG-1 human NK cell line was used to assess NKG2D binding of TriNKET NKG2D-binding-F4-TriNKET-BCMA. KHYG-1 cells transduced to express CD16-F158V were used to investigate the contribution of Fc CD16 binding. TriNKETs were diluted, and were incubated with KHYG-1 cells. Binding of the TriNKET was detected using a fluorophore conjugated anti-human IgG secondary antibody. Cells were analyzed by flow cytometry and Median Fluorescence Intensity (“MFI”) reported.
In general terms: Flow cytometry measures light scatter and fluorescence of single cells or particles in a stream.

The target of experiment [2] is T2, B-cell maturation antigen (BCMA) (human, UniProt Q02223 1-184).
T2 construct: This is endogenous BCMA on human myeloma cell lines (KMS12-PE low, MM.1R high expression); the whole entry is used; also called surface BCMA
T2 sequence: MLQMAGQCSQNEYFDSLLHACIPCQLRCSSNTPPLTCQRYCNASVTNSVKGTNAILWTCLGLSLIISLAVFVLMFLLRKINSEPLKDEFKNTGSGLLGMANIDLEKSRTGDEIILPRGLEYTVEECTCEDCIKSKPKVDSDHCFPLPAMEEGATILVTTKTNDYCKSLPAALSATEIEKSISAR
The experiment is described as follows: flow cytometry on KMS12-PE cells, 100 ug/mL, incubation times as labelled, anti-human IgG secondary antibody. As to the method:
KMS12-PE or MM.1R cells were incubated with an anti-BCMA monoclonal antibody (MAB42), bivalent TriNKET (NKG2D-binding-F4-TriNKET-BCMA), or monovalent TriNKET (A49-DB-TriNKET-BCMA). A49-DB-TriNKET-BCMA is a TriNKET in which the first antigen-binding site comprises an Fab that binds NKG2D and the second antigen-binding site comprises an Fab that binds BCMA, each connected to an Fc domain, forming a bi-valent antibody (WO2018/148566).
To assess total surface BCMA, a saturating concentration of 100 μg/mL was used, whereas 100 ng/mL was selected to investigate sub-saturation surface stabilization. Each sample was divided into thirds, with an aliquot each placed on ice for 20 minutes, at 37° C. for 2 hours or 37° C. for 24 hours. After the incubation period cells were washed and bound TriNKET was detected using an anti-human IgG secondary antibody. After staining the cells were fixed and stored at 4° C., all samples were analyzed at the end of the study.

Experiment [3] has as its target T3, NKG2D (human, UniProt P26718 1-216).
T3 construct: whole, on cells; also called NKG2D receptor
T3 sequence (looked up): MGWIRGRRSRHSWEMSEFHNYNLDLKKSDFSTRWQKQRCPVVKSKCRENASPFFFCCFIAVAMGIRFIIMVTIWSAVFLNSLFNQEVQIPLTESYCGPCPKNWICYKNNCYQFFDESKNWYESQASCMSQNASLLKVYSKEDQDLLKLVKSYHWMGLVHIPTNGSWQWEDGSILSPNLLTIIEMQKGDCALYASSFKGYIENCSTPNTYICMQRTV
The experiment is described as follows: flow cytometry on KHYG-1 parental (CD16-) cells expressing NKG2D, anti-human IgG secondary antibody, MFI. As to the method:
as §1

T1 sequence (P08637 17-254 F176V): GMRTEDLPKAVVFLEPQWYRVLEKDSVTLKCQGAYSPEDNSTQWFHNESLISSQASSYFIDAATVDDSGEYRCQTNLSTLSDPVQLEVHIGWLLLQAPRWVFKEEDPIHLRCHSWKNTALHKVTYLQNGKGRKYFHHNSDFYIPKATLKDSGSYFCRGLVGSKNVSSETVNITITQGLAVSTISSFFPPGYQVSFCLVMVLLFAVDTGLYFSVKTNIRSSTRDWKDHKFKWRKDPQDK

B1: NKG2D-binding-F4-TriNKET-BCMA (bispecific antibody, human IgG1, kappa)
heavy 1: EVQLLESGGGLVQPGGSLRLSCAASGFTFSDNAMGWVRQAPGKGLEWVSAISGPGSSTYYADSVKGRFTISRDNSKNTLYLQMNSLRAEDTAVYYCAKVLGWFDYWGQGTLVTVSSASTKGPSVFPLAPSSKSTSGGTAALGCLVKDYFPEPVTVSWNSGALTSGVHTFPAVLQSSGLYSLSSVVTVPSSSLGTQTYICNVNHKPSNTKVDKKVEPKSCDKTHTCPPCPAPELLGGPSVFLFPPKPKDTLMISRTPEVTCVVVDVSHEDPEVKFNWYVDGVEVHNAKTKPREEQYNSTYRVVSVLTVLHQDWLNGKEYKCKVSNKALPAPIEKTISKAKGQPREPRVYTLPPCRDELTKNQVSLTCLVKGFYPSDIAVEWESNGQPENNYKTTPPVLVSDGSFTLYSKLTVDKSRWQQGNVFSCSVMHEALHNHYTQKSLSLSPGSGSGGGGSDIQMTQSPSSVSASVGDRVTITCRASQGISSWLAWYQQKPGKAPKLLIYAASSLQSGVPSRFSGSGSGTDFTLTISSLQPEDFATYYCQQGVSFPRTFGCGTKVEIKGGGGSGGGGSGGGGSGGGGSEVQLVESGGGLVKPGGSLRLSCAASGFTFSSYSMNWVRQAPGKCLEWVSSISSSSSYIYYADSVKGRFTISRDNAKNSLYLQMNSLRAEDTAVYYCARGAPMGAAAGWFDPWGQGTLVTVSS
heavy 2: EVQLLESGGGLVQPGGSLRLSCAASGFTFSDNAMGWVRQAPGKGLEWVSAISGPGSSTYYADSVKGRFTISRDNSKNTLYLQMNSLRAEDTAVYYCAKVLGWFDYWGQGTLVTVSSASTKGPSVFPLAPSSKSTSGGTAALGCLVKDYFPEPVTVSWNSGALTSGVHTFPAVLQSSGLYSLSSVVTVPSSSLGTQTYICNVNHKPSNTKVDKKVEPKSCDKTHTCPPCPAPELLGGPSVFLFPPKPKDTLMISRTPEVTCVVVDVSHEDPEVKFNWYVDGVEVHNAKTKPREEQYNSTYRVVSVLTVLHQDWLNGKEYKCKVSNKALPAPIEKTISKAKGQPREPQVCTLPPSRDELTENQVSLTCLVKGFYPSDIAVEWESNGQPENNYKTTPPVLDSDGSFFLYSWLTVDKSRWQQGNVFSCSVMHEALHNHYTQKSLSLSPG
light: EIVLTQSPGTLSLSPGERATLSCRASQSVSDEYLSWYQQKPGQAPRLLIHSASTRATGIPDRFSGSGSGTDFTLAISRLEPEDFAVYYCQQYGYPPDFTFGQGTKVEIKRTVAAPSVFIFPPSDEQLKSGTASVVCLLNNFYPREAKVQWKVDNALQSGNSQESVTEQDSKDSTYSLSSTLTLSKADYEKHKVYACEVTHQGLSSPVTKSFNRGEC
notes: An A49 anti-NKG2D scFv sits at the C-terminus of one Fc chain; also called A49-F4-TriNKET-BCMA; NKG2D-F4-TriNKET-BCMA
Take B1: the binding result in experiment [1] and in experiment [2] was “binds” in each case.

B2: anti-BCMA monoclonal antibody MAB42 (antibody, V domains shown)
VH: EVQLLESGGGLVQPGGSLRLSCAASGFTFSDNAMGWVRQAPGKGLEWVSAISGPGSSTYYADSVKGRFTISRDNSKNTLYLQMNSLRAEDTAVYYCAKVLGWFDYWGQGTLVTVSS
VL: EIVLTQSPGTLSLSPGERATLSCRASQSVSDEYLSWYQQKPGQAPRLLIHSASTRATGIPDRFSGSGSGTDFTLAISRLEPEDFAVYYCQQYGYPPDFTFGQGTKVEIK
notes: also called anti-BCMA mAb; BCMA mAb
Consider B2, for which the binding result is recorded as “binds” in experiment [1], “no binding (tested: 100 ug/ml)” in experiment [3] and “binds” in experiment [2].
